According to the RNAGym collection of RNA variant scans (doi:10.7554/elife.80360):

B1: HDV Ribozyme (parent)
chain: GGCCGGCAUGGUCCCAGCCUCCUCGCUGGCGCCGGCUGGGCAACAUUCCGAGGGGACCGUCCCCUCGGUAAUGGCGAAUGGGACCCA

Variants of: B1
Assay: self-cleavage, relative activity (ratio to wild type); higher = more cleavage; co-transcriptional

In order of rising self-cleavage:
1. G25C U46A  0
2. C26A C75G  0
3. G25C G53A  0
4. G25C C33A  0
5. G25C C41G  0
6. G25C A43G  0
7. G25U G82U  0.0252
8. G25C C84U  0.0314
9. C26A G29U  0.032
10. G25C G35A  0.0346
11. G25C G50A  0.0354
12. G25C G82A  0.0361
13. G25U A83C  0.0386
14. G25U G34C  0.0396
15. G25U C26U  0.0415
16. G25C U37A  0.0426
17. G25A U79A  0.0437
18. G25C G81C  0.0449
19. G25U U60C  0.0475
20. G25C G29C  0.0489
21. G25U G38A  0.0511
22. G25C C30A  0.0511
23. G25C C36G  0.0519
24. G25C C66U  0.0563
25. G25U G34A  0.0573
26. G25C A70G  0.0573
27. G25A U79C  0.0583
28. G25C C49A  0.0594
29. G25C U47A  0.0639
30. G25U A78C  0.0665
31. G25U U47G  0.0692
32. G25C A87C  0.07
33. G25U U72A  0.0707
34. G25U G35C  0.0707
35. G25C G80A  0.0744
36. G25U A87C  0.0755
37. G25C C33U  0.0773
38. G25C A87U  0.0773
39. C26A G28C  0.0791
40. G25C G38U  0.0791
41. G25C G50U  0.0811
42. G25U A78U  0.0831
43. G25A U47A  0.0831
44. G25U C33U  0.0831
45. G25C U65G  0.0875
46. G25C C63G  0.0875
47. G25A G82C  0.089
48. G25U G68A  0.0923
49. G25U A77U  0.0923
50. G25C U60G  0.101
51. G25U C86A  0.102
52. G25U C48U  0.102
53. G25A U37G  0.104
54. G25C A45G  0.104
55. G25U C86U  0.108
56. G25C G74U  0.108
57. G25U A87U  0.109
58. G25A G73C  0.113
59. G25U U79C  0.115
60. G25U G80U  0.115
61. G25C G73A  0.116
62. G25U C41G  0.119
63. G25U A42G  0.119
64. G25C G38C  0.119
65. G25U G29U  0.12
66. G25U G54C  0.122
67. G25C C36A  0.128
68. C26A G29A  0.13
69. G25C A71G  0.131
70. G25C A78U  0.131
71. G25C C48G  0.133
72. G25U U27A  0.135
73. G25U G50C  0.136
74. G25U C62A  0.138
75. G25C G54C  0.138
76. G25C A43U  0.147
77. G25C C32A  0.148
78. G25C A51U  0.148
79. G25U C66U  0.151
80. C26G C36A  0.151
81. G25U G50A  0.151
82. G25U C64A  0.151
83. G25C G81U  0.151
84. G25U C33A  0.156
85. G25U G31A  0.157
86. G25C C84G  0.158
87. G25C G55A  0.158
88. G25C C58G  0.161
89. G25U C75U  0.162
90. G25C C57A  0.166
91. G25U C66A  0.172
92. G25U A45U  0.172
93. G25C U69C  0.175
94. G25U A78G  0.185
95. G25A G59A  0.189
96. G25U G53A  0.19
97. G25C G53U  0.193
98. C26A C36G  0.196
99. G25U G55A  0.201
100. G25A U65C  0.208
101. C26A G38U  0.208
102. G25C G31U  0.214
103. G25U C36U  0.218
104. G25A U69A  0.222
105. C26A G28U  0.222
106. G25U G67A  0.227
107. G25C G68A  0.227
108. G25A U69G  0.233
109. G25U U60A  0.237
110. G25U A51U  0.237
111. G25U U69G  0.244
112. G25U C86G  0.256
113. G25C C48U  0.26
114. G25A G59U  0.264
115. C26G C33G  0.285
116. G25A U47G  0.32
117. G25C C86G  0.332
118. G25C G53C  0.356
119. C26G A77C  0.383
120. C26A G35C  0.429
121. C26A G34A  0.486
122. C26A G73C  0.522
123. C26A A42U  0.525
124. C26G C36U  0.529
125. C26A G35U  0.619
126. C26A C62G  0.63
127. C26A U65G  0.646
128. C26A U72G  0.657
129. C26A A43C  0.665
130. C26A C30U  0.68
131. C26A C44G  0.712
132. C26A G81A  0.712
133. C26A A43G  0.731
134. C26G C41G  0.739
135. C26A U46C  0.745
136. C26A G53C  0.759
137. C26G C41U  0.76
138. C26G A83C  0.785
139. C26A G54A  0.79
140. C26G C57A  0.812
141. G25U C26G  0.816
142. C26A A78G  0.831
143. C26A C63G  0.853
144. C26A C66U  0.857
145. C26A C49G  0.867
146. C26A U79G  0.875
147. C26A C41G  0.883
148. C26A G73A  0.89
149. C26A A77G  0.902
150. C26A C66A  0.909
151. C26A G39U  0.935
152. C26A C48A  0.941
153. C26G C49A  0.95
154. C26G  0.952
155. C26G A70C  0.957
156. C26G C48A  0.973
157. C26A U69A  0.985
158. C26A G54C  1
159. C26A A70C  1.01
160. C26A G40A  1.01
161. C26A  1.01
162. C26A U60A  1.02
163. C26A C48G  1.07
164. C26A A70G  1.11
165. C26A A71G  1.11
166. C26A A56U  1.12
167. C26A C41U  1.17
